Assay results from patent publication US20240252592A1 (TIANJIN INSTITUTE OF PHARMACEUTICAL RESEARCH, published 2024).
Positions count from the first letter of the chain named. One block for each binder: values may come before it. Numbered stars: 1 amine (or outer) side, 2 acyl side, 3 side chain; on linkers, the order of the positions; unused ones are H or OH. Square brackets hold non-standard residues; d marks the D form. Side chains are listed from the residue outwards. Ends that are not written are not given here. * marks the point of attachment. C18 diacid = O=C(O)CCCCCCCCCCCCCCCCC(=O)*; γGlu = O=C(O)[C@H](CCC(=O)[*:2])N[*:1]; Palmitoyl = CCCCCCCCCCCCCCCC(=O)*; AEEA = NCCOCCOCC(=O)O; Aib = CC(C)(N)C(=O)O

How the values were obtained:
human GLP-1 receptor = human GLP-1 receptor (human, UniProt P43220 24-463); experiment: cell-based or functional assay
GC receptor = experiment: cell-based or functional assay

Binder: H[Aib]QGTFTSDK([γGlu-γGlu-Palmitoyl])SKYLEERAAKEFIAWLEGGPSSG-NH2 (not fully specified; printed as HAibQGTFTSDK*SKYLEERAAKEFIAWLEGGPSSG-Amid) [Compound 21]
EC50 of GLP-1 receptor mediated cAMP production (human GLP-1 receptor): 0.83 nM | EC50 of GC receptor mediated cAMP production (GC receptor): 0.175 nM

B3: Compound 19 (peptide)
peptide: HXQGTFTSDKSKYLESERAKEFVEWLVKEGGPSSG
HELM: PEPTIDE1{H.[Aib].Q.G.T.F.T.S.D.K.S.K.Y.L.E.S.E.R.A.K.E.F.V.E.W.L.V.K.E.G.G.P.S.S.G.[am]}|PEPTIDE2{[CCCCCCCCCCCCCCCC(=O)[*:2]].[gGlu].[gGlu]}$PEPTIDE1,PEPTIDE2,10:R3-3:R2$$$V2.0; N-terminus assumed
SMILES: CCCCCCCCCCCCCCCC(=O)N[C@@H](CCC(=O)N[C@@H](CCC(=O)NCCCC[C@H](NC(=O)[C@H](CC(=O)O)NC(=O)[C@H](CO)NC(=O)[C@@H](NC(=O)[C@H](Cc1ccccc1)NC(=O)[C@@H](NC(=O)CNC(=O)[C@H](CCC(N)=O)NC(=O)C(C)(C)NC(=O)[C@@H](N)Cc1c[nH]cn1)[C@@H](C)O)[C@@H](C)O)C(=O)N[C@@H](CO)C(=O)N[C@@H](CCCCN)C(=O)N[C@@H](Cc1ccc(O)cc1)C(=O)N[C@@H](CC(C)C)C(=O)N[C@@H](CCC(=O)O)C(=O)N[C@@H](CO)C(=O)N[C@@H](CCC(=O)O)C(=O)N[C@@H](CCCNC(=N)N)C(=O)N[C@@H](C)C(=O)N[C@@H](CCCCN)C(=O)N[C@@H](CCC(=O)O)C(=O)N[C@@H](Cc1ccccc1)C(=O)N[C@H](C(=O)N[C@@H](CCC(=O)O)C(=O)N[C@@H](Cc1c[nH]c2ccccc12)C(=O)N[C@@H](CC(C)C)C(=O)N[C@H](C(=O)N[C@@H](CCCCN)C(=O)N[C@@H](CCC(=O)O)C(=O)NCC(=O)NCC(=O)N1CCC[C@H]1C(=O)N[C@@H](CO)C(=O)N[C@@H](CO)C(=O)NCC(N)=O)C(C)C)C(C)C)C(=O)O)C(=O)O
EC50 of GLP-1 receptor mediated cAMP production (human GLP-1 receptor): 3.53 nM | EC50 of GC receptor mediated cAMP production (GC receptor): 6.25 nM

B4: Compound 23 (peptide)
peptide: H[Aib]QGTFTSDK([AEEA-AEEA-γGlu-C18 diacid])SKYLDEKRAKEFIEWLEAGGPSSG-NH2
modifications: N-terminus assumed
SMILES: CC[C@H](C)[C@H](NC(=O)[C@H](Cc1ccccc1)NC(=O)[C@H](CCC(=O)O)NC(=O)[C@H](CCCCN)NC(=O)[C@H](C)NC(=O)[C@H](CCCNC(=N)N)NC(=O)[C@H](CCCCN)NC(=O)[C@H](CCC(=O)O)NC(=O)[C@H](CC(=O)O)NC(=O)[C@H](CC(C)C)NC(=O)[C@H](Cc1ccc(O)cc1)NC(=O)[C@H](CCCCN)NC(=O)[C@H](CO)NC(=O)[C@H](CCCCNC(=O)COCCOCCNC(=O)COCCOCCNC(=O)CC[C@H](NC(=O)CCCCCCCCCCCCCCCCC(=O)O)C(=O)O)NC(=O)[C@H](CC(=O)O)NC(=O)[C@H](CO)NC(=O)[C@@H](NC(=O)[C@H](Cc1ccccc1)NC(=O)[C@@H](NC(=O)CNC(=O)[C@H](CCC(N)=O)NC(=O)C(C)(C)NC(=O)[C@@H](N)Cc1c[nH]cn1)[C@@H](C)O)[C@@H](C)O)C(=O)N[C@@H](CCC(=O)O)C(=O)N[C@@H](Cc1c[nH]c2ccccc12)C(=O)N[C@@H](CC(C)C)C(=O)N[C@@H](CCC(=O)O)C(=O)N[C@@H](C)C(=O)NCC(=O)NCC(=O)N1CCC[C@H]1C(=O)N[C@@H](CO)C(=O)N[C@@H](CO)C(=O)NCC(N)=O
EC50 of GLP-1 receptor mediated cAMP production (human GLP-1 receptor): 0.194 nM | EC50 of GC receptor mediated cAMP production (GC receptor): 0.329 nM

Binder: H[Aib]QGTFTSDK([AEEA-AEEA-γGlu-C18 diacid])SKYLEERAAKEFIAWLEAGGPSSG-NH2 (not fully specified; printed as HAibQGTFTSDK**SKYLEERAAKEFIAWLEAGGPSSG-Amid) [Compound 27]
EC50 of GLP-1 receptor mediated cAMP production (human GLP-1 receptor): 0.011 nM | EC50 of GC receptor mediated cAMP production (GC receptor): 0.014 nM

Binder: H[Aib]QGTFTSDK([AEEA-AEEA-γGlu-C18 diacid])SKYLEERAAKEFVAWLEAGGPSSG-NH2 (not fully specified; printed as HAibQGTFTSDK**SKYLEERAAKEFVAWLEAGGPSSG-Amid) [Compound 22]
EC50 of GLP-1 receptor mediated cAMP production (human GLP-1 receptor): 0.027 nM | EC50 of GC receptor mediated cAMP production (GC receptor): 0.018 nM

Binder: H[Aib]QGTFTSDYSKYLEERAAK([AEEA-AEEA-γGlu-C18 diacid])EFVEWLEGGPSSG-NH2 (not fully specified; printed as HAibQGTFTSDYSKYLEERAAK**EFVEWLEGGPSSG-Amid) [Compound 32]
EC50 of GLP-1 receptor mediated cAMP production (human GLP-1 receptor): 1.01 nM | EC50 of GC receptor mediated cAMP production (GC receptor): 0.077 nM

Next, values leading:

EC50 of GLP-1 receptor mediated cAMP production (human GLP-1 receptor): 0.211 nM | EC50 of GC receptor mediated cAMP production (GC receptor): 0.278 nM
B1: Compound 25 (peptide)
peptide: HXQGTFTSDKSKYLEERAAKEFVEWLLEAGGPSSG
HELM: PEPTIDE1{H.[Aib].Q.G.T.F.T.S.D.K.S.K.Y.L.E.E.R.A.A.K.E.F.V.E.W.L.L.E.A.G.G.P.S.S.G.[am]}|PEPTIDE2{[CCCCCCCCCCCCCCCC(=O)[*:2]].[gGlu].[gGlu]}$PEPTIDE1,PEPTIDE2,10:R3-3:R2$$$V2.0; N-terminus assumed
SMILES: CCCCCCCCCCCCCCCC(=O)N[C@@H](CCC(=O)N[C@@H](CCC(=O)NCCCC[C@H](NC(=O)[C@H](CC(=O)O)NC(=O)[C@H](CO)NC(=O)[C@@H](NC(=O)[C@H](Cc1ccccc1)NC(=O)[C@@H](NC(=O)CNC(=O)[C@H](CCC(N)=O)NC(=O)C(C)(C)NC(=O)[C@@H](N)Cc1c[nH]cn1)[C@@H](C)O)[C@@H](C)O)C(=O)N[C@@H](CO)C(=O)N[C@@H](CCCCN)C(=O)N[C@@H](Cc1ccc(O)cc1)C(=O)N[C@@H](CC(C)C)C(=O)N[C@@H](CCC(=O)O)C(=O)N[C@@H](CCC(=O)O)C(=O)N[C@@H](CCCNC(=N)N)C(=O)N[C@@H](C)C(=O)N[C@@H](C)C(=O)N[C@@H](CCCCN)C(=O)N[C@@H](CCC(=O)O)C(=O)N[C@@H](Cc1ccccc1)C(=O)N[C@H](C(=O)N[C@@H](CCC(=O)O)C(=O)N[C@@H](Cc1c[nH]c2ccccc12)C(=O)N[C@@H](CC(C)C)C(=O)N[C@@H](CC(C)C)C(=O)N[C@@H](CCC(=O)O)C(=O)N[C@@H](C)C(=O)NCC(=O)NCC(=O)N1CCC[C@H]1C(=O)N[C@@H](CO)C(=O)N[C@@H](CO)C(=O)NCC(N)=O)C(C)C)C(=O)O)C(=O)O

EC50 of GLP-1 receptor mediated cAMP production (human GLP-1 receptor): 0.193 nM | EC50 of GC receptor mediated cAMP production (GC receptor): 0.197 nM
B2: Compound 26 (peptide)
peptide: B1 peptide with K10Y, R17K, A18R
HELM: PEPTIDE1{H.[Aib].Q.G.T.F.T.S.D.Y.S.K.Y.L.E.E.K.R.A.K.E.F.V.E.W.L.L.E.A.G.G.P.S.S.G.[am]}|PEPTIDE2{[CCCCCCCCCCCCCCCC(=O)[*:2]].[gGlu].[gGlu]}$PEPTIDE1,PEPTIDE2,20:R3-3:R2$$$V2.0; N-terminus assumed
SMILES: CCCCCCCCCCCCCCCC(=O)N[C@@H](CCC(=O)N[C@@H](CCC(=O)NCCCC[C@H](NC(=O)[C@H](C)NC(=O)[C@H](CCCNC(=N)N)NC(=O)[C@H](CCCCN)NC(=O)[C@H](CCC(=O)O)NC(=O)[C@H](CCC(=O)O)NC(=O)[C@H](CC(C)C)NC(=O)[C@H](Cc1ccc(O)cc1)NC(=O)[C@H](CCCCN)NC(=O)[C@H](CO)NC(=O)[C@H](Cc1ccc(O)cc1)NC(=O)[C@H](CC(=O)O)NC(=O)[C@H](CO)NC(=O)[C@@H](NC(=O)[C@H](Cc1ccccc1)NC(=O)[C@@H](NC(=O)CNC(=O)[C@H](CCC(N)=O)NC(=O)C(C)(C)NC(=O)[C@@H](N)Cc1c[nH]cn1)[C@@H](C)O)[C@@H](C)O)C(=O)N[C@@H](CCC(=O)O)C(=O)N[C@@H](Cc1ccccc1)C(=O)N[C@H](C(=O)N[C@@H](CCC(=O)O)C(=O)N[C@@H](Cc1c[nH]c2ccccc12)C(=O)N[C@@H](CC(C)C)C(=O)N[C@@H](CC(C)C)C(=O)N[C@@H](CCC(=O)O)C(=O)N[C@@H](C)C(=O)NCC(=O)NCC(=O)N1CCC[C@H]1C(=O)N[C@@H](CO)C(=O)N[C@@H](CO)C(=O)NCC(N)=O)C(C)C)C(=O)O)C(=O)O

EC50 of GLP-1 receptor mediated cAMP production (human GLP-1 receptor): 0.072 nM | EC50 of GC receptor mediated cAMP production (GC receptor): 0.069 nM
B5: Compound 36 (peptide)
peptide: HXQGTFTSDKSKYLXERAAKEFIXWLEAGGPSSG
modifications: not fully specified; Lys 10 side chain -Ado-Ado-γE-OC17H32COOH; C-terminal amide

EC50 of GLP-1 receptor mediated cAMP production (human GLP-1 receptor): 2.21 nM | EC50 of GC receptor mediated cAMP production (GC receptor): 0.486 nM
B6: Compound 17 (peptide)
peptide: H[Aib]QGTFTSDK([AEEA-AEEA-γGlu-C18 diacid])SKYLEERAAKEFVAWLKEGGPSSG-NH2
modifications: N-terminus assumed
SMILES: CC(C)C[C@H](NC(=O)[C@H](Cc1c[nH]c2ccccc12)NC(=O)[C@H](C)NC(=O)[C@@H](NC(=O)[C@H](Cc1ccccc1)NC(=O)[C@H](CCC(=O)O)NC(=O)[C@H](CCCCN)NC(=O)[C@H](C)NC(=O)[C@H](C)NC(=O)[C@H](CCCNC(=N)N)NC(=O)[C@H](CCC(=O)O)NC(=O)[C@H](CCC(=O)O)NC(=O)[C@H](CC(C)C)NC(=O)[C@H](Cc1ccc(O)cc1)NC(=O)[C@H](CCCCN)NC(=O)[C@H](CO)NC(=O)[C@H](CCCCNC(=O)COCCOCCNC(=O)COCCOCCNC(=O)CC[C@H](NC(=O)CCCCCCCCCCCCCCCCC(=O)O)C(=O)O)NC(=O)[C@H](CC(=O)O)NC(=O)[C@H](CO)NC(=O)[C@@H](NC(=O)[C@H](Cc1ccccc1)NC(=O)[C@@H](NC(=O)CNC(=O)[C@H](CCC(N)=O)NC(=O)C(C)(C)NC(=O)[C@@H](N)Cc1c[nH]cn1)[C@@H](C)O)[C@@H](C)O)C(C)C)C(=O)N[C@@H](CCCCN)C(=O)N[C@@H](CCC(=O)O)C(=O)NCC(=O)NCC(=O)N1CCC[C@H]1C(=O)N[C@@H](CO)C(=O)N[C@@H](CO)C(=O)NCC(N)=O
